Test results: patent EP3025729B1 (Glaxo Group Limited, dated 2018)
Substitutions are numbered along the chain they refer to.

B1: SAP-K H1L0 humanised antibody (antibody, V domains shown)
VH: QVQLVQSGAEVKKPGSSVKVSCKASGYTFTSYWMHWVRQAPGQGLEWMGMIHPNSVNTNYNEKFKSRVTITADKSTSTAYMELSSLRSEDTAVYYCARRNDYYWYFDVWGQGTLVTVSS
VL: DIQMTQSPSSLSASVGDRVTITCKASQNVNSNVAWYQQKPGKAPKLLIYSASYRYSGVPSRFSGSGSGTDFTLTISSLQPEDFATYYCQQCNNYPFTFGQGTKLEIK
B2: SAP-K H0L0 humanised antibody (antibody, V domains shown)
VH: B1 VH with Y27G, T30S
VL: B1 VL
notes: also called SAP-K HOLO
B3: SAP-K H2L0 humanised antibody (antibody, V domains shown)
VH: B1 VH with M48I, V68A
VL: B1 VL

Key:
[1] = molecular target: T1, human serum amyloid P component (SAP) (human, UniProt P02743 20-223); test: ELISA, human SAP directly immobilised at 1 µg/mL
T1 construct: Purified from human material; In some assays it stood denatured (reduced SDS-PAGE); this is said under assay; also called human SAP; homo sapiens SAP

cynomologus monkey SAP = molecular target: T2, cynomologus monkey SAP (cynomolgus monkey, UniProt A0A7N9DA00 20-223); test: Biacore, cyno SAP amine-coupled on C1 chip, culture supernatant
T2 construct: also called cyno SAP; cynomolgus monkey serum amyloid P component
T2 sequence (A0A7N9DA00 entry or part of it): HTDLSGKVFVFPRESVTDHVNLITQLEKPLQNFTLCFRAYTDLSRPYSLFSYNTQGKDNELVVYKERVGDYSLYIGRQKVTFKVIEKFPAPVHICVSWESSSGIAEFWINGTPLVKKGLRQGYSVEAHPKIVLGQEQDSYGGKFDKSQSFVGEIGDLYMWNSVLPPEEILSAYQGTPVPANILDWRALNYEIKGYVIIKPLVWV

T1 sequence (P02743 20-223, form in doubt): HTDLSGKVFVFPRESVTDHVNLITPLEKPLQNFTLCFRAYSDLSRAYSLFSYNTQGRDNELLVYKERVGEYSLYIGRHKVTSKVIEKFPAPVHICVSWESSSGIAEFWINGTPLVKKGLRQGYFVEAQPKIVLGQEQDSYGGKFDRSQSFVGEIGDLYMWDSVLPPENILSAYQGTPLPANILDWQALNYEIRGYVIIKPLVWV

| Binder | fold loss of human SAP binding activity compared to SAP-K chimera [1] [fold] | binding result (cynomologus monkey SAP) |
| --- | --- | --- |
| B1 | ~2 |  |
| B2 | ~2 | no binding |
| B3 | ~2 |  |
